Measurements from patent US20190233493A1 (Sanofi, published 2019).
*1 amine or outer side, *2 acyl side, *3 side chain or, on linkers, in order; H or OH if unused. Side-chain parts run from the residue outwards. [ ]: non-standard residue; d: D form. The star is where a group is joined. PEG12 = NCCOCCOCCOCCOCCOCCOCCOCCOCCOCCOCCOCCOCCC(=O)O; γGlu = O=C(O)[C@H](CCC(=O)[*:2])N[*:1]; 1Nal = N[C@@H](Cc1cccc2ccccc12)C(=O)O; Stearoyl = CCCCCCCCCCCCCCCCCC(=O)*; Palmitoyl = CCCCCCCCCCCCCCCC(=O)*; Nle = CCCC[C@H](N)C(=O)O; Aib = CC(C)(N)C(=O)O

T1: RXFP1 receptor (UniProt Q9HBX9 1-757, limits assumed)
T1 sequence (looked up): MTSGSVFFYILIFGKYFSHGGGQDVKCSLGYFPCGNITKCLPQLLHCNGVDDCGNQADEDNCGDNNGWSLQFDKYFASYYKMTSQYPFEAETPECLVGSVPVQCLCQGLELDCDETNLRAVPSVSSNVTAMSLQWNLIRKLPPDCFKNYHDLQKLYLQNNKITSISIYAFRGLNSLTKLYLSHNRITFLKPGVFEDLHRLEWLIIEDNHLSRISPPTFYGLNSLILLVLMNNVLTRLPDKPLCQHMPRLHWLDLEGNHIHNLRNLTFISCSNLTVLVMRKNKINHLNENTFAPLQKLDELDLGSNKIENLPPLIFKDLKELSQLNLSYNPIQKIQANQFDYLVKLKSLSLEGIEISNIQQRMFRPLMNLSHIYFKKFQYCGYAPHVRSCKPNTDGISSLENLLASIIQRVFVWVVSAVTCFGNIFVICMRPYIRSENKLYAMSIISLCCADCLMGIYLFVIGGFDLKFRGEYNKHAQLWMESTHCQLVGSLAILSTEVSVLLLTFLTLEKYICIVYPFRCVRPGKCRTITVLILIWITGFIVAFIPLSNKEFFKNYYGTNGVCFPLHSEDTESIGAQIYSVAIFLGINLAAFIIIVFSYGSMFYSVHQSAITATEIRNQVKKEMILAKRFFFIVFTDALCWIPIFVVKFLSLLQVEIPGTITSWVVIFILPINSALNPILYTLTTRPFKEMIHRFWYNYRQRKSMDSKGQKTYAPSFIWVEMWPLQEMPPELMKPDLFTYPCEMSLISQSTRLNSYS

B1: peptide of SEQ ID NO: 29 (peptide)
peptide: Ac-LEGREKVRAK(Ac)I[Aib][Aib]EG[Nle]ST[1Nal]S[Aib]RK[PEG12]K([γGlu-γGlu-γGlu-Palmitoyl])-NH2
SMILES: CCCCCCCCCCCCCCCC(=O)N[C@@H](CCC(=O)N[C@@H](CCC(=O)N[C@@H](CCC(=O)NCCCC[C@H](NC(=O)CCOCCOCCOCCOCCOCCOCCOCCOCCOCCOCCOCCOCCNC(=O)[C@H](CCCCN)NC(=O)[C@H](CCCNC(=N)N)NC(=O)C(C)(C)NC(=O)[C@H](CO)NC(=O)[C@H](Cc1cccc2ccccc12)NC(=O)[C@@H](NC(=O)[C@H](CO)NC(=O)[C@H](CCCC)NC(=O)CNC(=O)[C@H](CCC(=O)O)NC(=O)C(C)(C)NC(=O)C(C)(C)NC(=O)[C@@H](NC(=O)[C@H](CCCCNC(C)=O)NC(=O)[C@H](C)NC(=O)[C@H](CCCNC(=N)N)NC(=O)[C@@H](NC(=O)[C@H](CCCCN)NC(=O)[C@H](CCC(=O)O)NC(=O)[C@H](CCCNC(=N)N)NC(=O)CNC(=O)[C@H](CCC(=O)O)NC(=O)[C@H](CC(C)C)NC(C)=O)C(C)C)[C@@H](C)CC)[C@@H](C)O)C(N)=O)C(=O)O)C(=O)O)C(=O)O
B2: peptide of SEQ ID NO: 3 (peptide)
peptide: Ac-LEGREKVRAQI[Aib][Aib]EG[Nle]STWS[Aib]RKK([γGlu-Stearoyl])-NH2
SMILES: CCCCCCCCCCCCCCCCCC(=O)N[C@@H](CCC(=O)NCCCC[C@H](NC(=O)[C@H](CCCCN)NC(=O)[C@H](CCCNC(=N)N)NC(=O)C(C)(C)NC(=O)[C@H](CO)NC(=O)[C@H](Cc1c[nH]c2ccccc12)NC(=O)[C@@H](NC(=O)[C@H](CO)NC(=O)[C@H](CCCC)NC(=O)CNC(=O)[C@H](CCC(=O)O)NC(=O)C(C)(C)NC(=O)C(C)(C)NC(=O)[C@@H](NC(=O)[C@H](CCC(N)=O)NC(=O)[C@H](C)NC(=O)[C@H](CCCNC(=N)N)NC(=O)[C@@H](NC(=O)[C@H](CCCCN)NC(=O)[C@H](CCC(=O)O)NC(=O)[C@H](CCCNC(=N)N)NC(=O)CNC(=O)[C@H](CCC(=O)O)NC(=O)[C@H](CC(C)C)NC(C)=O)C(C)C)[C@@H](C)CC)[C@@H](C)O)C(N)=O)C(=O)O
B3: peptide of SEQ ID NO: 27 (peptide)
peptide: Ac-LEGREKVR[Aib]K(Ac)I[Aib][Aib]EG[Nle]STWS[Aib]RKK(Ac)[PEG12]K([γGlu-γGlu-γGlu-Palmitoyl])-NH2
SMILES: CCCCCCCCCCCCCCCC(=O)N[C@@H](CCC(=O)N[C@@H](CCC(=O)N[C@@H](CCC(=O)NCCCC[C@H](NC(=O)CCOCCOCCOCCOCCOCCOCCOCCOCCOCCOCCOCCOCCNC(=O)[C@H](CCCCNC(C)=O)NC(=O)[C@H](CCCCN)NC(=O)[C@H](CCCNC(=N)N)NC(=O)C(C)(C)NC(=O)[C@H](CO)NC(=O)[C@H](Cc1c[nH]c2ccccc12)NC(=O)[C@@H](NC(=O)[C@H](CO)NC(=O)[C@H](CCCC)NC(=O)CNC(=O)[C@H](CCC(=O)O)NC(=O)C(C)(C)NC(=O)C(C)(C)NC(=O)[C@@H](NC(=O)[C@H](CCCCNC(C)=O)NC(=O)C(C)(C)NC(=O)[C@H](CCCNC(=N)N)NC(=O)[C@@H](NC(=O)[C@H](CCCCN)NC(=O)[C@H](CCC(=O)O)NC(=O)[C@H](CCCNC(=N)N)NC(=O)CNC(=O)[C@H](CCC(=O)O)NC(=O)[C@H](CC(C)C)NC(C)=O)C(C)C)[C@@H](C)CC)[C@@H](C)O)C(N)=O)C(=O)O)C(=O)O)C(=O)O
B4: peptide of SEQ ID NO: 28 (peptide)
peptide: Ac-LEGREKVR[Aib]QI[Aib][Aib]EG[Nle]STWS[Aib]RKK(Ac)[PEG12]K([γGlu-γGlu-γGlu-Palmitoyl])-NH2
SMILES: CCCCCCCCCCCCCCCC(=O)N[C@@H](CCC(=O)N[C@@H](CCC(=O)N[C@@H](CCC(=O)NCCCC[C@H](NC(=O)CCOCCOCCOCCOCCOCCOCCOCCOCCOCCOCCOCCOCCNC(=O)[C@H](CCCCNC(C)=O)NC(=O)[C@H](CCCCN)NC(=O)[C@H](CCCNC(=N)N)NC(=O)C(C)(C)NC(=O)[C@H](CO)NC(=O)[C@H](Cc1c[nH]c2ccccc12)NC(=O)[C@@H](NC(=O)[C@H](CO)NC(=O)[C@H](CCCC)NC(=O)CNC(=O)[C@H](CCC(=O)O)NC(=O)C(C)(C)NC(=O)C(C)(C)NC(=O)[C@@H](NC(=O)[C@H](CCC(N)=O)NC(=O)C(C)(C)NC(=O)[C@H](CCCNC(=N)N)NC(=O)[C@@H](NC(=O)[C@H](CCCCN)NC(=O)[C@H](CCC(=O)O)NC(=O)[C@H](CCCNC(=N)N)NC(=O)CNC(=O)[C@H](CCC(=O)O)NC(=O)[C@H](CC(C)C)NC(C)=O)C(C)C)[C@@H](C)CC)[C@@H](C)O)C(N)=O)C(=O)O)C(=O)O)C(=O)O
B5: peptide of SEQ ID NO: 25 (peptide)
peptide: Ac-LEGREKVRAK(Ac)I[Aib][Aib]EGMSTWS[Aib]RK[PEG12]K([γGlu-γGlu-γGlu-Palmitoyl])-NH2
SMILES: CCCCCCCCCCCCCCCC(=O)N[C@@H](CCC(=O)N[C@@H](CCC(=O)N[C@@H](CCC(=O)NCCCC[C@H](NC(=O)CCOCCOCCOCCOCCOCCOCCOCCOCCOCCOCCOCCOCCNC(=O)[C@H](CCCCN)NC(=O)[C@H](CCCNC(=N)N)NC(=O)C(C)(C)NC(=O)[C@H](CO)NC(=O)[C@H](Cc1c[nH]c2ccccc12)NC(=O)[C@@H](NC(=O)[C@H](CO)NC(=O)[C@H](CCSC)NC(=O)CNC(=O)[C@H](CCC(=O)O)NC(=O)C(C)(C)NC(=O)C(C)(C)NC(=O)[C@@H](NC(=O)[C@H](CCCCNC(C)=O)NC(=O)[C@H](C)NC(=O)[C@H](CCCNC(=N)N)NC(=O)[C@@H](NC(=O)[C@H](CCCCN)NC(=O)[C@H](CCC(=O)O)NC(=O)[C@H](CCCNC(=N)N)NC(=O)CNC(=O)[C@H](CCC(=O)O)NC(=O)[C@H](CC(C)C)NC(C)=O)C(C)C)[C@@H](C)CC)[C@@H](C)O)C(N)=O)C(=O)O)C(=O)O)C(=O)O
B6: peptide of SEQ ID NO: 30 (peptide)
peptide: Ac-LEGREKVRAQI[Aib][Aib]EG[Nle]STWS[Aib]RK[PEG12]K([γGlu-γGlu-γGlu-Stearoyl])-NH2
SMILES: CCCCCCCCCCCCCCCCCC(=O)N[C@@H](CCC(=O)N[C@@H](CCC(=O)N[C@@H](CCC(=O)NCCCC[C@H](NC(=O)CCOCCOCCOCCOCCOCCOCCOCCOCCOCCOCCOCCOCCNC(=O)[C@H](CCCCN)NC(=O)[C@H](CCCNC(=N)N)NC(=O)C(C)(C)NC(=O)[C@H](CO)NC(=O)[C@H](Cc1c[nH]c2ccccc12)NC(=O)[C@@H](NC(=O)[C@H](CO)NC(=O)[C@H](CCCC)NC(=O)CNC(=O)[C@H](CCC(=O)O)NC(=O)C(C)(C)NC(=O)C(C)(C)NC(=O)[C@@H](NC(=O)[C@H](CCC(N)=O)NC(=O)[C@H](C)NC(=O)[C@H](CCCNC(=N)N)NC(=O)[C@@H](NC(=O)[C@H](CCCCN)NC(=O)[C@H](CCC(=O)O)NC(=O)[C@H](CCCNC(=N)N)NC(=O)CNC(=O)[C@H](CCC(=O)O)NC(=O)[C@H](CC(C)C)NC(C)=O)C(C)C)[C@@H](C)CC)[C@@H](C)O)C(N)=O)C(=O)O)C(=O)O)C(=O)O
B7: peptide of SEQ ID NO: 26 (peptide)
peptide: Ac-LEGREKVRAK(Ac)I[Aib][Aib]EG[Nle]STWS[Aib]RKK(Ac)[PEG12]K([γGlu-γGlu-γGlu-Palmitoyl])-NH2
SMILES: CCCCCCCCCCCCCCCC(=O)N[C@@H](CCC(=O)N[C@@H](CCC(=O)N[C@@H](CCC(=O)NCCCC[C@H](NC(=O)CCOCCOCCOCCOCCOCCOCCOCCOCCOCCOCCOCCOCCNC(=O)[C@H](CCCCNC(C)=O)NC(=O)[C@H](CCCCN)NC(=O)[C@H](CCCNC(=N)N)NC(=O)C(C)(C)NC(=O)[C@H](CO)NC(=O)[C@H](Cc1c[nH]c2ccccc12)NC(=O)[C@@H](NC(=O)[C@H](CO)NC(=O)[C@H](CCCC)NC(=O)CNC(=O)[C@H](CCC(=O)O)NC(=O)C(C)(C)NC(=O)C(C)(C)NC(=O)[C@@H](NC(=O)[C@H](CCCCNC(C)=O)NC(=O)[C@H](C)NC(=O)[C@H](CCCNC(=N)N)NC(=O)[C@@H](NC(=O)[C@H](CCCCN)NC(=O)[C@H](CCC(=O)O)NC(=O)[C@H](CCCNC(=N)N)NC(=O)CNC(=O)[C@H](CCC(=O)O)NC(=O)[C@H](CC(C)C)NC(C)=O)C(C)C)[C@@H](C)CC)[C@@H](C)O)C(N)=O)C(=O)O)C(=O)O)C(=O)O

The binders below were run against T1, RXFP1 receptor (assay: cell-based or functional assay).

Going from B1 to B2, the “EC50 (nM), OVCAR 5 cells (cAMP)” value rises from 2.5 nM to 28.5 nM (11-fold).

Compared with B3, B4 is 15-fold higher in “EC50 (nM), OVCAR 5 cells (cAMP)” value: 0.3 nM for the first, 4.64 nM for the second.

B5 and B6 are within 1.5-fold of each other in “EC50 (nM), OVCAR 5 cells (cAMP)” value: 1.21 nM for the first, 0.92 nM for the second.

B7 was tested, and the “EC50 (nM), OVCAR 5 cells (cAMP)” value was 0.57 nM.

Compared with B1, B2 is higher in “EMax, OVCAR 5 cells (cAMP)” value: 78% for the first, 93% for the second.

Going from B3 to B4, the “EMax, OVCAR 5 cells (cAMP)” value falls from 86% to 78%.

First: B5
Second: B6
The “EMax, OVCAR 5 cells (cAMP)” value of the first is higher: 95% for the first, 89% for the second.

In the case of B7, the “EMax, OVCAR 5 cells (cAMP)” value is reported as 85%.
